In series [1] the target is RrA(K158M) (Rhodospirillum rubrum). The series is described as follows: crystal structure; hanging drops, 293 K, protein 19-21 mg/mL in the standard buffer, with or without L-Asp; tetramer as a dimer of tight dimers, in the asymmetric unit or made by crystal symmetry.
The target is the same in series [2]. The experiment in a line: dynamic light scattering; protein at 0.22-1.1 mM in the standard buffer (50 mM HEPES, 200 mM NaCl, pH 7), 20°C, DynaPro Nanostar; proteins modelled as globular; oligomer in solution.
Series [3] addresses T1, RrA (Rhodospirillum rubrum, UniProt Q2RMX1).
T1 construct: gene Rru_A3730; full length, 172 residues, Lys149 natural variant (Glu149 in the first report); synthetic gene in pET15b, N-terminal His6 tag removed by TEV protease, expressed in E. coli BL21(DE3) RIPL; homotetramer, active site completed by Tyr21 and Asn26 of another protomer
T1 sequence (Q2RMX1 1-172): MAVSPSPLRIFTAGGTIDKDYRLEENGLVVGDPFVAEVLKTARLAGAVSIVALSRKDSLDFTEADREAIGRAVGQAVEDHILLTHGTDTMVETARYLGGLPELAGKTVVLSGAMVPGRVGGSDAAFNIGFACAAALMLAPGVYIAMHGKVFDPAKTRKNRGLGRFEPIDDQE
The series is described as follows: nanoDSF back-reflection, aggregation onset. The format is binding. Conditions: 20 mM ligand, 0.1 M Na-citrate pH 5.0, 0.2 M NaCl; 42.3 °C without ligand.

Series [4] concerns the target RrA(Y21A) (Rhodospirillum rubrum). The series is described as follows: crystal structure; hanging drops, 293 K, protein 19-21 mg/mL in the standard buffer, with or without L-Asp; tetramer as a dimer of tight dimers, in the asymmetric unit or made by crystal symmetry.
The target is the same in series [5]. The series is described as follows: dynamic light scattering; protein at 0.22-1.1 mM in the standard buffer (50 mM HEPES, 200 mM NaCl, pH 7), 20°C, DynaPro Nanostar; proteins modelled as globular; oligomer in solution.
Series [6] deals with RrA(K19A) (Rhodospirillum rubrum). The experiment in a line: crystal structure; hanging drops, 293 K, protein 19-21 mg/mL in the standard buffer, with or without L-Asp; tetramer as a dimer of tight dimers, in the asymmetric unit or made by crystal symmetry.
For series [7] the target is unchanged. The series is described as follows: dynamic light scattering; protein at 0.22-1.1 mM in the standard buffer (50 mM HEPES, 200 mM NaCl, pH 7), 20°C, DynaPro Nanostar; proteins modelled as globular; oligomer in solution.
The target of series [8] is RrA(Y21F) (Rhodospirillum rubrum). The experiment in a line: crystal structure; hanging drops, 293 K, protein 19-21 mg/mL in the standard buffer, with or without L-Asp; tetramer as a dimer of tight dimers, in the asymmetric unit or made by crystal symmetry.
Series [9] shares this target. The series is described as follows: dynamic light scattering; protein at 0.22-1.1 mM in the standard buffer (50 mM HEPES, 200 mM NaCl, pH 7), 20°C, DynaPro Nanostar; proteins modelled as globular; oligomer in solution.
Series [10] has as its target RrA(K19E) (Rhodospirillum rubrum). The experiment in a line: crystal structure; hanging drops, 293 K, protein 19-21 mg/mL in the standard buffer, with or without L-Asp; tetramer as a dimer of tight dimers, in the asymmetric unit or made by crystal symmetry.
The target is the same in series [11]. The series is described as follows: dynamic light scattering; protein at 0.22-1.1 mM in the standard buffer (50 mM HEPES, 200 mM NaCl, pH 7), 20°C, DynaPro Nanostar; proteins modelled as globular; oligomer in solution.
In series [12] the target is T2, RrA (Rhodospirillum rubrum, UniProt Q2RMX1, Y21F).
T2 construct: gene Rru_A3730; full length, 172 residues, Lys149 natural variant (Glu149 in the first report); synthetic gene in pET15b, N-terminal His6 tag removed by TEV protease, expressed in E. coli BL21(DE3) RIPL; homotetramer, active site completed by Tyr21 and Asn26 of another protomer
The series is described as follows: X-ray crystal structure, […] Å. The format is binding. Conditions: active site, three of four protomers; also 8up3 (co-purified L-Asp in some protomers).

Series [13] deals with RrA(K19Q) (Rhodospirillum rubrum). The series is described as follows: crystal structure; hanging drops, 293 K, protein 19-21 mg/mL in the standard buffer, with or without L-Asp; tetramer as a dimer of tight dimers, in the asymmetric unit or made by crystal symmetry.
For series [14] the target is unchanged. The series is described as follows: dynamic light scattering; protein at 0.22-1.1 mM in the standard buffer (50 mM HEPES, 200 mM NaCl, pH 7), 20°C, DynaPro Nanostar; proteins modelled as globular; oligomer in solution.
Series [15] concerns the molecule itself. Described as above.
Substrate in series [16]: NC(=O)C[C@H](N)C(=O)O
The experiment in a line: ammonia release by Nessler's reagent, A480; Lineweaver-Burk. The format is biochemical, Rhodospirillum rubrum. Conditions: PBS pH 7.4, 20 °C, substrate inhibition above 5 mM.

Series [17] deals with the molecule itself. The series is described as follows: mass photometry; RrA(wt) at 25 nM and 65 nM in the standard buffer (50 mM HEPES, 200 mM NaCl, pH 7), 20°C, Refeyn TwoMP; minor lower-mass peak only in the 25 nM sample.

T2 sequence (Q2RMX1 entry or part of it Y21F): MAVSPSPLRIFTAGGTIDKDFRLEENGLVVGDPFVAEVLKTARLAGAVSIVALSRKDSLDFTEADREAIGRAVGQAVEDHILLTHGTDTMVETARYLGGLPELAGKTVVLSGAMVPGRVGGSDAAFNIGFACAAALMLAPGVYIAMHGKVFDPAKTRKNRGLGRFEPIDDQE

Usually stoichiometry N stands for the number of molecules, sites or subunits per partner or assembly. As to RrA(K158M) (enzyme), the stoichiometry N in series [1] and in series [2] was 4 in each case.

`N[C@@H](CCC(=O)O)C(=O)O` [L‐Glu]: the T agg in [3] was found to be 61.5 °C.

For the molecule RrA(Y21A) (enzyme), the stoichiometry N in [4] and in series [5] was 4 in each case.

On to RrA(K19A) (enzyme), for which the stoichiometry N in series [6] and in [7] was 4 each time.

Take RrA(Y21F) (enzyme): the stoichiometry N in series [8] and in series [9] was 4 in each case.

Turning to RrA(K19E) (enzyme), the stoichiometry N in series [10] and in series [11] was 4 throughout.

With `N[C@@H](CC(=O)O)C(=O)O` [L‐Asp], the T agg in series [3] is 61.3 °C. For the same molecule, the “X-ray crystal structure, 1.90 Å” value in series [12] is reported as “the ligand was present in three out of four protomers”.

In the case of RrA(K19Q) (enzyme), the stoichiometry N in series [13] and in series [14] was 4 in each case.

B1: RrA(wt), short-chain L-asparaginase from Rhodospirillum rubrum (enzyme, UniProt Q2RMX1 1-172, looked up)
chain: T1 sequence (Q2RMX1 1-172)
notes: L-asparaginase RrA of Rhodospirillum rubrum, synthetic gene of GenBank QXG80441.1; protomer of 172 residues (Met1 traced in the structure); the GenBank entry and the PDB entries hold; source: E. coli BL21(DE3) RIPL, pET15b, purified (HisTrap, TEV cleavage, second HisTrap flow-through, Superdex 75); not shown: His6, N-terminal, cleaved
The term Km denotes the concentration of substrate that gives half-maximal velocity. As a reminder, the kcat is the maximal rate divided by the concentration of active sites. For the molecule B1, the “stoichiometry N” value in series [15] amounted to 4. Besides, in series [16], the Km was found to be 3.6 ± 0.3 mM and the kcat came to 58.2 ± 3.0 s⁻¹. Moreover, in [17], the “stoichiometry N” value was found to be 2.
